The data set concerns ATP. Nature of the data set: switch fluorescence ratio, 500 uM ATP over buffer (Cy3 cluster intensity, sum of 5 cycles each) (fold (ratio)); higher = stronger signal-on switching upon ATP binding; sequences stand for … in TCGTCGGCAGCGTCAGATGTGTATAAGAGACAGTTTTTTTTTTTTTTTTTTTTTTTTT…TC. To be noted: aptamer strand: ATP DNA aptamer (quencher-CACCTGGGGGAGTATTGCGGAGGAAGG + anchor), 100 nM annealed; ATP concentration: 500 uM. An outline of the steps: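 The fluorescence ratio divides summed target-cycle Cy3 intensity by summed buffer-cycle Cy3 intensity for each cluster and is averaged per switch-domain sequence. Cy3-labelled switching-strand clusters on a modified Illumina MiSeq flow-cell were annealed to 100 nM quencher-labelled ATP aptamer, then imaged in selection buffer and again after 15 min with 500 uM ATP at 22 °C. Five such cycles were run, with NaOH stripping and re-annealing between them, and clusters outside 100-1000 RFU were excluded.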

In the supplement of paper PMC10126150 one finds switch fluorescence ratio data, which are given here for 120 sequences.

± gives the standard deviation of the averaged measurements.
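Also: ATP exposure 15 min at 22 °C before imaging.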

Take CCGGTGGCTG: the switch fluorescence ratio was 1 ± 0.033.
In the case of TCAAGAGCTG it was 1.08 ± 0.072; in that of GCAAGTCATG, 1.03 ± 0.04; in that of GAGAGGGGCT, 1.01 ± 0.02.
Next, TGGCATAGGT: 1.02 ± 0.03; TGTTTATTCC: 1.11 ± 0.087.
In the case of TTTTATATAA it was 1.02 ± 0.039; in that of AAGGGTCGAT, 0.968 ± 0.016.
TCTCACTGCC: the switch fluorescence ratio worked out at 1.08 ± 0.028.
In the case of GAGGATATAG it was 1.03 ± 0.061.
With AGTTTGATAT, the switch fluorescence ratio came out at 0.999 ± 0.017.
Take AGGATGCAGA: the switch fluorescence ratio was 1.01 ± 0.024.
Take GATTGAACGG: the switch fluorescence ratio stood at 0.997 ± 0.0086.
Consider TCATGCCCTT, for which the switch fluorescence ratio stood at 1.02 ± 0.033.
In the case of AATGCTGGTG, the switch fluorescence ratio worked out at 1.075 ± 0.01.
Next, AAATTATCGG: 1 ± 0.042; ACCACAGAGC: 1.04 ± 0.051.
In the case of GCGATTTATG, the switch fluorescence ratio was found to be 0.9723 ± 0.0051.
Next, CATTTGAATT: 0.973 ± 0.033.
Next, GAGTGTATTT: 1.02 ± 0.016; TGTGCAATGT: 1.3 ± 0.029.
Take TTACCCTATA: the switch fluorescence ratio is 1.07 ± 0.029.
In the case of TGACTTTTCG it was 0.995 ± 0.032; in that of GTCGGCAGGT, 0.994 ± 0.015.
In the case of TTAGTTAAT it was 1.02 ± 0.023.
AATGAATTGG: the switch fluorescence ratio was 0.9691 ± 0.005.
In the case of GTGTAAATAG it was 1.01 ± 0.025; in that of ATGATAGGGA, 1.01 ± 0.063.
In the case of TTATCCCGAA, the switch fluorescence ratio is 0.991 ± 0.0085.
In the case of TTTCCATAAG it was 1.007 ± 0.0022.
On to CTGAACTATG, for which the switch fluorescence ratio was 1 ± 0.056.
As for CAAAACAGGT, the switch fluorescence ratio came to 1.01 ± 0.032.
In the case of GGTCCAACTG it was 0.987 ± 0.036; in that of AAAGAACGGA, 1.06 ± 0.095; in that of AGTGACGTAC, 1.77 ± 0.075.
Next, ACAGTGTGGG: 1.05 ± 0.018; ACGTTAAAAT: 1.05 ± 0.021; GGTCTTCCGC: 1.14 ± 0.088.
In the case of TTGCTGTTAG it was 0.995 ± 0.0074; in that of TTTCTCGTTT, 1.006 ± 0.0072; in that of CCTCGATGTA, 1.08 ± 0.027.
TAGGTTCGAG: the switch fluorescence ratio was determined as 0.985 ± 0.011.
In the case of TCGGATTGGG it was 0.993 ± 0.033.
For TCTGTGTAGC, the switch fluorescence ratio worked out at 1 ± 0.027.
Next, TTTGTTCATC: 0.97 ± 0.024; GCGGAAAGGA: 1 ± 0.038.
Take TTGAATATCT: the switch fluorescence ratio was 1.03 ± 0.032.
Next, CTTAAACAGC: 1.02 ± 0.063; GAACGGAAGG: 1.014 ± 0.0043; ATAGGGTAAG: 0.965 ± 0.018.
Next, TCCAGTGGGA: 1.11 ± 0.087; ACGTTATTGG: 1.14 ± 0.02; AGGCCCCCGA: 1.02 ± 0.066.
Next, TTGGGTGCCT: 0.999 ± 0.028; GCCCTATAGG: 1.01 ± 0.011; TTTTGAACGT: 1.02 ± 0.043.
With GTATTCAGTA, the switch fluorescence ratio stood at 0.995 ± 0.022.
In the case of AGAGGCTAGG it was 1.01 ± 0.032; in that of AGAATGGTAT, 1.07 ± 0.08.
Regarding TTAACCAGCA, the switch fluorescence ratio was 1.05 ± 0.032.
In the case of CAAGAGTATT, the switch fluorescence ratio is 0.995 ± 0.022.
In the case of TAGTGTTTCT, the switch fluorescence ratio worked out at 1.01 ± 0.018.
For AATAAGGGTG, the switch fluorescence ratio worked out at 1.09 ± 0.14.
Next, CATATTTT: 0.971 ± 0.047.
In the case of AAAAGCGTAG, the switch fluorescence ratio was determined as 1.01 ± 0.015.
In the case of TTTTCGGGGT it was 0.986 ± 0.025; in that of GACTTGGAAT, 1 ± 0.041.
In the case of CCGAGAGGGC it was 1.15 ± 0.092.
In the case of CGTAGAGCGG it was 1 ± 0.074; in that of TTTTATTGGA, 1 ± 0.03.
In the case of AAAATCTAAT, the switch fluorescence ratio turned out to be 1.01 ± 0.054.
TGGTGTATCC: the switch fluorescence ratio was 0.985 ± 0.019.
In the case of TAATAGGGGT it was 1 ± 0.018.
As for TTAAAATCGC, the switch fluorescence ratio is 0.957 ± 0.022.
Turning to GGAATGCGCA, the switch fluorescence ratio stood at 1.028 ± 0.0068.
Take TTAGGCAGTA: the switch fluorescence ratio turned out to be 1.01 ± 0.067.
For the sequence CCGTGAGAAT, the switch fluorescence ratio stood at 1.07 ± 0.018.
With GGGGACCTAT, the switch fluorescence ratio was determined as 1.02 ± 0.018.
Take CCTGCTGTTC: the switch fluorescence ratio stood at 1.51 ± 0.09.
For the sequence CCGTGGGGAT, the switch fluorescence ratio amounted to 1.24 ± 0.26.
Next, TTATTAGGGG: 0.983 ± 0.028; CGATTTGGGT: 1.02 ± 0.042; TTTACCCACT: 1.46 ± 0.073.
As to GAGTAACCTG, the switch fluorescence ratio amounted to 1.01 ± 0.071.
For ACTGGAAGTC, the switch fluorescence ratio amounted to 0.9875 ± 0.0088.
With TCGGGAATTT, the switch fluorescence ratio stood at 1.067 ± 0.0091.
Next, CTGTAAGGGG: 0.977 ± 0.022; ATCATGCTTC: 0.994 ± 0.025; TGAGTTATG: 1.0034 ± 0.00041.
Next, GATAGACGAG: 1.03 ± 0.043.
Turning to GATAGCTGGT, the switch fluorescence ratio is 0.981 ± 0.025.
As for GGTAGGGGGT, the switch fluorescence ratio is 1 ± 0.03.
Next, TAATAGAAGG: 0.977 ± 0.0098.
Turning to CGGTGGTTGG, the switch fluorescence ratio stood at 1 ± 0.029.
Next, TGCTAATAGG: 1.01 ± 0.02; GCTGTAATTT: 0.998 ± 0.056; GCAATTCCGG: 1.21 ± 0.035.
In the case of CATAGGGCTT it was 0.963 ± 0.025; in that of TTCATCGGTT, 0.9922 ± 0.0022; in that of GGGTCGGCTA, 1.02 ± 0.035.
Consider TACAGAACGC, for which the switch fluorescence ratio came to 1.24 ± 0.24.
For AATCTACGCA, the switch fluorescence ratio came out at 1.44 ± 0.32.
In the case of AGAGAGTAGA it was 1.02 ± 0.021; in that of CTCATACGGG, 1.05 ± 0.036.
In the case of CGGATCCTTC it was 1.02 ± 0.037; in that of CGGCTCTTTG, 0.985 ± 0.043; in that of GGTGAGGTGC, 0.9995 ± 0.0084.
Next, GGTGGGTTGG: 0.982 ± 0.034.
On to AAAAGGTTAG, for which the switch fluorescence ratio worked out at 1.0185 ± 0.00083.
Next, ATTACAGGGC: 1.03 ± 0.012; TGGGATTATT: 1.02 ± 0.019; AAGTTGTTCT: 0.997 ± 0.014.
On to CCAATGACGT, for which the switch fluorescence ratio worked out at 0.979 ± 0.039.
For the sequence AGGGGCGTGG, the switch fluorescence ratio was found to be 1.01 ± 0.046.
On to GTTAGTTAGG, for which the switch fluorescence ratio stood at 0.976 ± 0.025.
Next, ATTTTAGATG: 1 ± 0.025; AACGGAGTGG: 1 ± 0.042.
On to GTCGGTAAAC, for which the switch fluorescence ratio came to 1.06 ± 0.014.
Next, TGTTGTGCAC: 1.02 ± 0.023.
Next, CGAAACAGCA: 1.012 ± 0.0064.
